Results: patent publication US20190309034A1 (Boehringer Ingelheim, published 2019)

Columns and labels:
Experiment in all cases: cell-based or functional assay
[1] = biological target: Recombinant soluble trimeric human BAFF (furin-cleaved human BAFF 134-285) (human, UniProt Q9Y275 134-285)
[2] = biological target: Recombinant soluble 60-mer human BAFF (His-HuBAFF 134-285) (human, UniProt Q9Y275 134-285)
[3] = biological target: Human membrane-bound BAFF (mbBAFF) (human, UniProt Q9Y275 1-285)

| Soluble trimeric huBAFF (50 pM) Neutralization IC50 [1] [pM] | Soluble trimeric huBAFF (50 pM) Neutralization IC90 [1] [pM] | Soluble 60-mer huBAFF (4 pM) Neutralization IC50 [2] [pM] | Soluble 60-mer huBAFF (4 pM) Neutralization IC90 [2] [pM] | Potent mbBAFF Neutralization IC50 [3] [nM] | Potent mbBAFF Neutralization IC90 [3] [nM] | Binder |
| --- | --- | --- | --- | --- | --- | --- |
| 97 | 327 | 4 | 13 | – | – | 317H2A6 (antibody, V domains shown) VH: QVTLKESGPGILQPSQTLSLTCSFSGFSLRTFGMGVGWIRQPSGKGLEWLAHIWWNGDKYYDPALKSRLTISKDTSENRVFLNIANVDTTDTAPYYCVRIGPSITTVAEGFAYWGQGTLVTVSA VL: DIVMTQSQKFLSTTIGDRVSITCKASQNVGSAVVWYQQKPGQPPKLLITSASNRYSGVPDRFTGSGSGTDFTLTVSNVQSVDLADYFCQQYSNYPLTFGAGTKLELK |
| 148 | 312 | 6 | 23 | – | – | 323E9D1 (antibody, V domains shown) VH: QVTLKESGPGILQPSQTLSLTCSFSGFSMRTFGMGVGWIRQPSGKGLEWLAHIWWNDEKYYNPDLKSRLTVSKDSSKNQVFLTIANVDTSDTAPYYCTRVGPSISTIAEGFPYWGQGTLVTVSA VL: DIVMTQSQKFVSTRVGDRVSITCKASQNVGAAVVWYQQKSGQPPKLLIRSASNRYIGVPDRFTGSGSGTDFTLTVSDVQSGDLADYFCQQYSNYPLTFGAGTKLELT |
| 35 | 324 | 13 | 30 | – | – | 560H2A7 (antibody, V domains shown) VH: EVKLVESGGGLVQPGGSLSLSCAGSGFTFSDYYMSWVRQPPGKALEWLALIRNKAPGYTTEYSASVKGRFTISRDNSQSILYLQMNALRPEDSATYYCARVLRRADCLDYWGQGTALTVSS VL: not shown |
| 110 | 3110 | 10 | 24 | – | – | 320F9C5 (antibody, V domains shown) VH: QVTLKESGPGILQSSQTLSLTCSFSGFSLRTFGMGVGWIRQPSGKGLEWLAHIWWNDDKSSHPALKSRLTISKDTSKNQVFLKIANVDTAETATYYCVRIGPSITTVAEGFAYWGQGTLVTVSA VL: DIVMTQSQKFMSTTVGDRVSITCKASQNVGSVVAWYQQRPGQSPTLLIYSASNRYTGVPDRFTGSGSGTDFTLTISNMQSEDLADYFCQQYSSYPLTFGAGTKLELK |
| 21 | 473 | 9 | 23 | – | – | 363D4A10 (antibody, V domains shown) VH: QVTLKESGPGILQSSQTLSLTCSFSGFSLKTFGMGVGWIRQPSGKGLEWLAHIWWNDDKFYHPALKSRLTISKDTSKNQVFLKIANVDTAETATYYCVRIGPSITTVAEGFAYWGQGTLVTVSA VL: DIVMTQSQKFMSTTVGDRVTITCKASQNVGSAVVWYQQKPGQSPILLIFSASNRYTGVPDRITGSGSGAEFTLTISSVQSEDLAEYFCQQYSSYPLTFGAGTKLELK |
| 384 | 1100 | 4050 | 20900 | 2.56 | 175 | 1094C4E6 (antibody, V domains shown) VH: EVQLQQSGAELVRPGASVKLSCTASGFNIKDDYMHWVKQTPEQGLEWIGRIDPAYGNGKYVPKFQDKATITADTSSNTAYLQLSSLTSEDTAVYYCARRYYAVSSVDYALDYWGQGTSVTVSS VL: DIVMTQSHKFMSTSVGDRVTITCKASQDVATAVAWYQQKPGQSPKLLIYWASTRHTGVPDRFTGSGSGTDFTLTISNVQSEDLANYFCQQYSNYPYTFGGGTTLEIK |
| 99 | 444 | 21 | 90 | – | – | 352G11A10 (antibody, V domains shown) VH: QVQLQQSGPELVKPGGSVRISCKASGYSLISYYIHWVKQRPGQGLEWIGLTFPGSGNSKFIEKFKGKATLTADTSSNTAYIQLSSLTSEDSAVYYCTRGDFGNYLAYWYFDVWGTGTTVTVSS VL: DIKMTQSPSSIYASLGERVTITCKASQDIHSYLSWFQQKPGKSPKTLMYRTNRLVDGVPSRFSGSGSGQDYSLTIRSLEYEDMGNYYCLQYDEFPYTFGGGAKLEVK |
| 29 | 378 | 12 | 44 | – | – | 606H7F8 (antibody, V domains shown) VH: VQLVESGGGLVKPGGSLKLSCAASGFTFSSYDMSWVRQTPEKRLEWVAAINSYGVNTYYPDTVKDRFTISRDNAKNTLYLQMSSLRSEDTALYYCARLLIGPYYYAMDYWGQGTSVTVSS VL: DIQMTQSPASLSASVGETVTITCRASGNIHNYLAWYQQKQGKSPQLLVYNAKTLADGVPSRFSGSGSGTQFSLKINSLQPEDFGSYYCQHFWSTPYTFGGGTKLEIK |
| 102 | 352 | 11 | 32 | – | – | 344B9D9 (antibody, V domains shown) VH: EFQLQQSGPELGEPGASVKISCKASGFSFSDYNINWVKQSNGKSLEWIGKVHPKDGTATYNQKFQDKATLTLDQSSSTAYMQLSSLTSEDSAVYYCLPLYYDSLTKILFAYWGQGTLVTVSA VL: DIQMTQSPASLSASVGETVTITCRASGNIHNYLAWYQQKQGKSPQLLVYSAITLADGVPSRFSGSGSETQFSLKINSLQPEDFGIYYCQHFWNTPYTFGGGTKLEIK |
| 99 | 457 | 12 | 40 | – | – | 332C1B12 (antibody, V domains shown) VH: QVQLQQPGAELVKPGASVKLSCKASGYTFTNDNYWMNWMKQRPGRGLEWIGRIRPSDSETHYNQKFTNKATLTVDKSSSTAYIQLSSLTSVDSAVYYCARSWEDLLLRSMEDYFDYWGQGTTLTVSS VL: DIVLTQSPASLPVSLGQRATISCRASKGVSTSSYTFIHWYQQKPGQPPKLLIKYASNLESGVPARFSGSGSGTDFTLNIHPVEEEDVATYYCQHSREFPRTFGGGTKLEIK |
| 43 | 677 | 20 | 56 | 0.147 | 1.06 | 1070A6B7 (antibody, V domains shown) VH: QVPLQQPGAEMVRPGASMRLSCKASGYTFPGYWMHWVKQRPRQGLEWIAKIDPSDSETHYNQNFKDKATLTVDKYSNTVYMQLNSLTSEDSAVYYCANEGWDSLTKVWFGWWGQGTLVTVSA VL: DVVMTQTPLSLPVSLGDQASISCRCSQSLVHSNGNTYLHWYLQKPGQSPKLLIYKVSDRFSGVPDRFSGSGSGTDFTLRISRVEADDLGVYFCSQSTHVPLTFGAGTKLELK |
| 55 | 326 | 11 | 33 | – | – | 27I21-3C7 (antibody, V domains shown) VH: QVQLQQSGPELVRPGTSVKISCKAPGYIFTSHWMQWVRQRPGQGLEWIGDIFPGSGTTDYNEKFKDKATVTVDRSSSSAYMQFNSLTSEDSAVYFCASGAFDYWGQGTTLTVSS VL: DIQMTQSPSSLSASLGERVSLTCRASQDIGNRLNWLQQAPDGTIKRLIYATSSLDSGVPKRFSGSRSGSDYSLTISSLESEDFVDYYCLQYASYPFTFGTGTKLEIK |
| 91 | 331 | 8 | 24 | – | – | 319B8A12 (antibody, V domains shown) VH: KVTLKESGPGILQPSQTLSLTCSFSGFSLRTFGMGVGWIRQPSGKGLEWLAHIWWNDEKYYNPDLKSRLTVSKDSSKNQVFLTIANVDTSDTAPYYCTRVGPSISTVAEGFPYWGQGTLVTVSA VL: DIVMTQSQKFVSTRVGDRVSITCKASQNVGAAVVWYQQKSGQPPKLLIRSASNRYIGVPDRFTGSGSGTDFTLTVSDVQSGDLADYFCQQYSNYPLTFGAGTKLELTR |
| 110 | 329 | 9 | 29 | – | – | 348A6C1 (antibody, V domains shown) VH: QVTLRESGPGILQPSQTLSLTCSFSGFSLRTFGMGVGWIRQPSGKGLEWLAHIWWNDEKYYNPALKSRLTVSKDSSENQVFLKIANVDTTDTAPYYCARLGPSITTVAEGFPYWGQGTLVTVSA VL: DIVMTQSQKFMSTTVGDRVSITCKASQNVGAAVAWYQQKPGQPPKLLIRSASNRYIGVPDRFTGSGSGTDFTLTVSDVQSVDLADYFCQQYSNYPLTFGAGTKLELTR |
| 107 | 824 | 29 | 79 | 0.141 | 2.09 | 1002E8A6 (antibody, V domains shown) VH: EVQLQQSGPELVKPGASVKMSCKASGYTITSYVMHWVKQKPGQGLEWIGYINPNNDGTKYNEKFKGKATLTSDKSSNTAYMELSSLTSEDSAVYYCARGDYSNYFYWYFDVWGAGTTVTVSS VL: DIKMTQSPSSMYASLGERVTITCKASQDINSYLTWFQQKPGKSPETLIYRANRLVSGVPSRFSGSGSGQDYSLTISSLEYEDMGIYSCLQYDEFPYTFGGGTKLEIK |
